The nanobody polyreactivity screen of Harvey et al. (2022)

Assay: yeast display, Sf9 membrane polyspecificity reagent, FACS + sequencing; frameworks hold sequencing errors
How it was run: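 Synthetic nanobody libraries on Saccharomyces cerevisiae BJ5465 were galactose-induced for 36–48 hours, stained 1 hour at 4 °C with 10% biotinylated, detergent-solubilized Sf9 membrane reagent and enriched on streptavidin microbeads. FACS then separated cells into low and high (top ~1%) gates by anti-HA (expression) and streptavidin (reagent binding) fluorescence. Genes were colony-PCR amplified, MiSeq 2 × 250 sequenced and CDR-length filtered. A clone's polyreactivity label is that of its gate of origin.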

Sequence	polyreactivity (PSR sort gate)
QVQLVESGGALVQAGGSLRLSCAASGIIFYDYAMGWYRPAPGKERELVAAITWTGSSTYYADSVKGRFTISRDNAKITVYRQMNCLKQEDTAVSYCAADYWEYSPYEDLTYDYWGQGTQVTVSS	high polyreactivity
QVQLVESGGALVQAGGSLRLSCAASGITFLYYAMGWYRQAPGKERELVAAISGGGASTYYADSVKGRFTISRDNAKNTVYLQMNSLKPEDTAVYYCAAGYRDFFRARFGYWGQGTQVTVSS	high polyreactivity
QVQLVESGGALVQAGGSLRLSCAASGITFWKYTMGWYRQAPGKERELVASIRIGGSTYYADSVKGRFTISRDNAKNTVYLQMNSLKPEDTAVYYCATDSRLWGQGTQVTVSS	high polyreactivity
QVQLVESGGALVQAGGSLRLSCAASGLIFYKYAMGWYRQAPGKERELVASISTGGGSTYYADSVKGRFTISRDNAKNTVYLQMNSLKPEDTAVYYCAARWWRRFRGSHSLYDYWGQGTLVTVSS	high polyreactivity
QVQLVESGGALVQAGGSLRLSCAASGRIFASNGMGWYRQAPGKEREFVAAINRSGGSTYYADSVKGRFTISRDNAKNTVYLQMNSLKPEDTAVYYCNKDYLYSYLWGWKVYSYDYWGQGTQVTVSS	low polyreactivity
QVQLVESGGALVQAGGSLRLSCAASGRIFIVYAMGWSRQAPGKERDLVAAITSSGGGTYYADSVKGRFTISRDNAKNTVYLQMNSLKQEDSAVFYCATRYPYRPGYEYWGQGTQVTVSS	low polyreactivity
QVQLVESGGALVQAGGSLRLSCAASGRTFWDYAMGWYREAPGKERELVAAITWGGGSTYYADSVKGRFTISRDNAKNTVYLQMNSLKPVDTAVYYCAAGRGRHTYNYWGQGTQVTVTS	low polyreactivity
QVQLVESGGALVQAGGSLRLSCAASGRTLGGYAMGWYRQAPGKERELVAAITRRGGTTYYADSVKGRFTISRDNAKNTVYLQMNSLKPEDTAVYYCAKYTVQYAISHYDYWGQGTQVTVSS	high polyreactivity
QVQLVESGGALVQAGGSLRLSCAASGSIFFSYAMGWYRQAPGKERELVAAISTSGGNTYYADSVKGRFTISRDNAKHTVYLQMNSLKPEDTAVYYCNDRGSYPPYRSYGYWGQGTQVTVSS	low polyreactivity
QVQLVESGGALVQAGGSLRLSCAASGSIFGLKDMRWYRPAPGKEREFVAAITWSGGSSTYYADSVKGRFTISRDNAKITVSLQMNSVKTEDTAVYYCAADDRTLPADVDYWGQGTQVTVSS	high polyreactivity
QVQLVESGGALVQAGGSLRLSCAASGSIFWPNAMGWYRPAPGKERELVAAISWGTGSTYYADSVKGRFTISRDNAKNTVYLQMNSLKPEDTAVYYCAADGAYLDPYYDYWGQGTQVTVSS	low polyreactivity
QVQLVESGGALVQAGGSLRLSCAASGSISWKNAMGWYRKAPGKERELVAAISSTVTYYADSVKGRFTISRDNAKNTVYLQMNRLKPADTAVYYCAAEYLAYTTLYTGDYWGQGTQVTVSS	low polyreactivity
QVQLVESGGALVQAGGSLRLSCAASGSTFVYYAMGWYRQAPGKERELVAAISRSGTSTYYADSVKGRFTISRDNAKNTVYLQMNSLKPEDTAVYYCNARKKQGYDYWGQGTQVTVSS	high polyreactivity
QVQLVESGGALVQAGGSLRLSCAASGSTFVYYAMRWYRQTPGKERELVAAIRSDASTNYADSVKGRFTISRDNAKNTVYLQMNILKPEDTAVYYCNTAQLVSDEFDYWGQGTQVTVSS	low polyreactivity
QVQLVESGGALVQAGGSLRLSCAASGYTSILYAMGWYRQAPGKEMELVASITKSGDDTYYADSVKGRFTISRDNAKNTVYLQMNSLKPEDTAVYYCAAEYTYGDYSYVWYDYWGQGTQVTVSS	high polyreactivity
QVQLVESGGALVQAGGSLRLSCAASRITFTDNAMGWYRQAPGKERELVAAISSGASTYYADSVKGRFTISRDNAKNTVYLQMNSLKPEDSAVYYCATRQTYNYPWHYRYYYWGQGTQVTVSS	high polyreactivity
QVQLVESGGALVQAGGSLRLSCAPSGLTFSDYAMGWYRQAPGKEREFVAGISSGGSTYYADSVKGRFTISRDNAKNTVYFQMKSLKPEDTAVYFCAGTRYNSWPIKFDYWGQGTQVTVSS	high polyreactivity
QVQLVESGGALVQAGGSLRLSLADSGMTFSQNAMGWYRQAPGKERELVAAISSSGTSTYYADSVKGRFTISRDNAKNTVYLQMNSLKPEDTAVYYCNAPPGTFQWQGHSDYWGQGTQVTVSS	low polyreactivity
QVQLVESGGALVQAGRSLRLSCAASGRTFWVYAMGWYRQAPGKERELVAAIRWSAGTTYYADSVKGRFTISRDNAKNTVYLQMNSLKPEDTAVYYCAKRRYTAISYGYWGQGTKVTVSS	high polyreactivity
QVQLVESGGALVQARGSLRLSCAASGRTFVWYAMGWYRQAPGKERELVAAITLSGGSTYYADSVKGRFTISRDNAKNTVYLQMTSLKPEDTAVYYCAADGTYRPEDYDYWGQGTKVTVSS	low polyreactivity
QVQLVESGGCIVQAGGSLRLSCAASGRICYTNAMVWYRQAPGKERELVAVISWGGDTTYYADSVKGRFTISRDNANNTVYLQMNSLKPEDTAGYYCNADWGPPYEIYDSWGQGTQVTVSS	low polyreactivity
QVQLVESGGCIVQAGGSLRLSCSASGLLFYINPMGWYRQAPGKEREFVAGINRNGGSTYYADSVKGRFTISRDNALYSVYLQMNSLKPEDTAVYYCNADQYWDRYFSWGQGTQGTVSS	low polyreactivity

Sequence	polyreactivity (PSR sort gate)
QVQLVESGGCLFQAGGSLRLSCAASGFIFGHNAMGWYRQAPGTERELVAAITWSGGRTYYADSVKGRFTISRDNAKNTVYLQMISLKPEDKAVDYCNRRGRWRKYDYWGQGTQVTVSS	high polyreactivity
QVQLVESGGCLLQAGGSLRLSCAASGYTFGKNAMGWYRPAPGKERELVARIRTNGGTTYYADSVKGRFTISRDIAKYTVYLQMYSLKPEDTAVDYCNAYRGYEYDYWGQGTHVTVSS	low polyreactivity
QVQLVESGGCLVHAGGSLRLSCAAYGSILKYNAIGWYIQAPGKERELVAAITSRGGSTYYADSVKGRFTISRDNAKNTVYLQMNSLKPEDTAVYYCNRVYLGYFRYDYWGQGTQVTVSS	high polyreactivity
QVQLVESGGCLVHAGGSLRVSSAASGITFILNAMGWYRQAHGKEREFVAAISTYRGNTYYADSVKGRFTISRDNVKNTFYLEMYSLKPEDTAVYYSNADLYFRQGDVDLLRYVYWVQGTQVTVSS	low polyreactivity
QVQLVESGGCLVKAGGSLRLSCAASGRIFLTNAIGWYRQAPGKESELVADISRAGSTYADSVKGRFTISRDNAKNTVYLQMNSLKPEDTAVYYCSADEYSPGDSRTRYDYWGQGTQVTVSS	low polyreactivity
QVQLVESGGCLVQAAGRLRLSSAASGSTFYGYAMGWYRQAPGKERQLVAAITVRGGSTYYADSVKGRFTISRDNAKNTVYLQMYSLKPEDTAVYYCNAYIVSGFYVYDYWGQGTQVTVSS	high polyreactivity
QVQLVESGGCLVQAGCSLRLSCAASGGTFDVNAMGWYRQAPGKERELVAAITWSGGNTYYADSVKGRFTISRDNAKNTVYLQMNSLKPEDTAVYYCATDFSPVYYTRYDYWGQGTQVTVSS	low polyreactivity
QVQLVESGGCLVQAGCSLRLSCAASGRIFSTYAMGWYRQAPGTERELVAAINKIGGSTYFADSVKGRFTISRDNAKNTVYLQMNSLKPEDTAVYYCAADAPYYPVRRYYYWGQGTQVTVSS	low polyreactivity
QVQLVESGGCLVQAGGRLRISSAASGSIFAINDIGWYRQAPGKERELVAAIRSGGRTYYADSVKGRFTISRDNAKNTVYLQMNSLKPEYTAVYYCNAGGKWIGSDNWGQGTQVTVSS	high polyreactivity
QVQLVESGGCLVQAGGRLRLSCAASGFIFHGYAMGWYRPAPGKERELVAAISSRGGTTYYADSVQGRFTISRDKAKTTVYLQMNSLKPEDSAVDDCAADKIRYITSPVPFYYWGQGTQVTVSS	high polyreactivity
QVQLVESGGCLVQAGGRLRLSSAASGGTFTFYAMGWYRQAPGKERELVATINWSGGSTYYADSVKGRFTISRDNAKNTVYLQMNSLKPEDTAVYYCNAAWPYKSVEYWGQGTQVTVSS	low polyreactivity
QVQLVESGGCLVQAGGSLRFSCAASGSTFGWYAMGWYRHAPGKERELVAAITSVGSTYYADYVKGRFRISRDNAKNTVYLQMNSLKPEDTAVYYCAKRFGSGWAWFGYWGQGTQVTVSS	low polyreactivity
QVQLVESGGCLVQAGGSLRLICAASGIILTQNAMGWYRQAPGKERELVAAITESGARTYYADSVKGRFTISRDNAKNTVYLQMNSLKPEDTAVYYCAAHTRTSGHNYWGQGTQVTVSS	low polyreactivity
QVQLVESGGCLVQAGGSLRLIRDASGFIIRPYAMGWYRQAPGKEREFVAAITGGGSTYYADSVKGRFTISRDNAKNTVYLQMNSLKPEDTAVYYCNADRRRRSGGFAGWHFQRKDYWGQGTQVTVSS	low polyreactivity
QVQLVESGGCLVQAGGSLRLNCAASGGTFVNNDMGWYRQAPGKERELVAAIRSAGTTYYADSVKGRFTISRDNAKNSVYLQMNSLKPVDTAVYYCNADTTGYWSYGFQYYGEDYWGQGTQVTVSS	low polyreactivity
QVQLVESGGCLVQAGGSLRLSCAASGFTFGRNYMGWYRQAPGKEREFVASISGSGGRTYYADSVKGRFTISRDNAKNTVYLQMNSLQPEDTAVYYCAAYRYSAYLYWDEYGGQGTQVTVSS	high polyreactivity
QVQLVESGGCLVQAGGSLRLSCAASGFTFSSNAMGWYRQAPGKERELVAAISFNSTSTYYADSVKGRFTISRDNAKNTVYLQMNSLKPEDTAVYYCAADVPRVQSEPEYDYWGQGTQVTVSS	low polyreactivity
QVQLVESGGCLVQAGGSLRLSCAASGFTFTKYAMGWYRQAPGQERELVAAINRSGRTYYADSVKGRFTISRDNAKNTVYLQMNSLKPEDTAVYYCAADTRYQYSAYDYWGQGTQVTVSS	high polyreactivity
QVQLVESGGCLVQAGGSLRLSCAASGIIFGRYTMGWYRQAPGKERELVAAITSSGITYYADSVKGRVTISRDNAKNTVYLQMNSLKPEDTAVYYCNADYSSPGYYWPYDYWGQGTQVSVSS	low polyreactivity
QVQLVESGGCLVQAGGSLRLSCAASGIIFYYYAMGWSRQAPGKEREFVAGIRWSSGSTYYADSVKGRFTISRDNAKNTVYLQMNSLKPEDTAVYYCAAAYLSWYGGYYYWGQGSQVTVSS	low polyreactivity
QVQLVESGGCLVQAGGSLRLSCAASGITFPGNAMGWYRPATGKERELVAVIRKSGTSTYYADSVKGRFTISRDNAKNTVYLQMISLIPEDTAVYYCAAGGPSTLDDYWGHGTQVTVSS	low polyreactivity
